Laboratory results taken from US20090111753A1, “Nogo-A Polypeptide Fragments, Variant Nogo Receptor-1 Polypeptides, and Uses Thereof” (Yale University, priority 2004, published 2009).
Changes are numbered by the printed parent chain. Names may count otherwise.

B1: 133, 136: human NgR1 mutant, listed residues mutated to alanine (protein)
chain: CPGACVCYNEPKVTTSCPQQGLQAVPVGIPAASQRIFLHGNRISHVPAASFRACRNLTILWLHSNVLARIDAAAFTGLALLEQLDLSDNAQLRSVDPATFHGLGRLATLALDRCGLQELGPGLFRGLAALQYLYLQDNALQALPDDTFRDLGNLTHLFLHGNRISSVPERAFRGLHSLDRLLLHQNRVAHVHPHAFRDLGRLMTLYLFANNLSALPTEALAPLRALQYLRLNDNPWVCDCRARPLWAWLQKFRGSSSEVPCSLPQRLAGRDLKRLAANDLQGCAVATGPYHPIWTGRATDEEPLGLPKCCQPDAADKASVLEPGRPASAGNALKGRVPPGDSPPGNGSGPRHINDSPFGTLPGSAEPPLTAVRPEGSEPPGFPTSGPRRRPGCSRKNRTRSHCRLGQAGSGGGGTGDSEGSGALPSLTCSLTPLGLALVLWTVLGPC
B2: 63, 65: human NgR1 mutant, listed residues mutated to alanine (protein)
chain: B1 chain with F37A, H39A, A107H, A110H
B3: 189, 191, 284: human NgR1 mutant, listed residues mutated to alanine (protein)
chain: B1 chain with A107H, A110H, R163A, S165A, E258A
B4: 82, 179: human NgR1 mutant, listed residues mutated to alanine (protein)
chain: B1 chain with N56A, A107H, A110H, N153A
B5: 171, 172, 175, 176, 196, 199: human NgR1 mutant, listed residues mutated to alanine (protein)
chain: B1 chain with A107H, A110H, D145A, D146A, R149A, D150A, R170A, R173A
B6: 36, 38: human NgR1 mutant, listed residues mutated to alanine (protein)
chain: B1 chain with E10A, K12A, A107H, A110H
B7: 267, 269: human NgR1 mutant, listed residues mutated to alanine (protein)
chain: B1 chain with A107H, A110H, R241A, R243A
B8: 202, 205, 250: human NgR1 mutant, listed residues mutated to alanine (protein)
chain: B1 chain with A107H, A110H, H176A, D179A, R224A
B9: 277, 279: human NgR1 mutant, listed residues mutated to alanine (protein)
chain: B1 chain with A107H, A110H, K251A, R253A
B10: 127, 176: human NgR1 mutant, listed residues mutated to alanine (protein)
chain: B1 chain with H101A, A107H, A110H, D150A
B11: 127, 151: human NgR1 mutant, listed residues mutated to alanine (protein)
chain: B1 chain with H101A, A107H, A110H, R125A
B12: D259N: human NgR1 mutant, asparagine substitution to mimic a human polymorphism (protein)
chain: B1 chain with A107H, A110H, D233N
B13: 158, 160: human NgR1 mutant, listed residues mutated to alanine (protein)
chain: B1 chain with A107H, A110H, Y132A, Y134A
B14: 202, 205: human NgR1 mutant, listed residues mutated to alanine (protein)
chain: B1 chain with A107H, A110H, H176A, D179A
B15: 182, 186: human NgR1 mutant, listed residues mutated to alanine (protein)
chain: B1 chain with A107H, A110H, H156A, H160A
B16: 232, 234: human NgR1 mutant, listed residues mutated to alanine (protein)
chain: B1 chain with A107H, A110H, Y206A, F208A
B17: 189, 191: human NgR1 mutant, listed residues mutated to alanine (protein)
chain: B1 chain with A107H, A110H, R163A, S165A
B18: 202, 205, 227: human NgR1 mutant, listed residues mutated to alanine (protein)
chain: B1 chain with A107H, A110H, H176A, D179A, R201A
B19: 171, 172, 175, 176: human NgR1 mutant, listed residues mutated to alanine (protein)
chain: B1 chain with A107H, A110H, D145A, D146A, R149A, D150A
B20: 189, 191, 237: human NgR1 mutant, listed residues mutated to alanine (protein)
chain: B1 chain with A107H, A110H, R163A, S165A, N211A
B21: 292, 296, 297, 300: human NgR1 mutant, listed residues mutated to alanine (protein)
chain: B1 chain with A107H, A110H, R266A, R270A, D271A, R274A
B22: 296, 297, 300: human NgR1 mutant, listed residues mutated to alanine (protein)
chain: B1 chain with A107H, A110H, R270A, D271A, R274A
B23: 114, 117: human NgR1 mutant, listed residues mutated to alanine (protein)
chain: B1 chain with D88A, Q91A, A107H, A110H
B24: 196, 199: human NgR1 mutant, listed residues mutated to alanine (protein)
chain: B1 chain with A107H, A110H, R170A, R173A
B25: 143, 144: human NgR1 mutant, listed residues mutated to alanine (protein)
chain: B1 chain with A107H, A110H, Q117A, E118A

system: NgR ligands; test: Binding of alanine substituted NgR mutants to NgR ligands, summary categories; settings: AP-Nogo66, AP-B4C, AP-B4C66, AP-Lingo-1, AP-OMgp and AP-MAG; compared to wild type NgR
Description: To better define how multiple ligands bind to the NgR protein, we examined a series of Ala-substituted NgR for ligand binding activity. NgR mutagenesis was done using the Quick Change Multisite Directed Mutagenesis Kit (Stratagene catalog #200514). Human NgR1 was used as a template. Ala substitutions were generated for each of the charged residues predicted to be solvent accessible at the surface of the ligand binding domain of NgR (Barton, W. A., et al., Embo J. 22:3291-3302 (2003); He, X. L., et al., Neuron 38:177-185 (2003)). We generated mutants in which 1-8 surface residues localized within 5 A of one another were Ala-substituted. Because of the coiling nature of the LRR structure, as residues juxtaposed on the protein surface are commonly separated by approximately 25 residues in the primary structure. In addition to mutations in specific charged surface patches, other mutations were targeted to glycosylation sites and to regions predicted to be involved in ligand binding based on the NgR structure (Barton, W. A., et al., Embo J. 22:3291-3302 (2003); He, X. L., et al., Neuron 38:177-185 (2003)). In addition, a variant corresponding to a human polymorphism was examined (D259N). None of the mutations altered the Leu residues that define the LRR structure itself or the Cys residues critical in the amino and carboxyl terminal capping domains. The vast majority of such Ala surface substitution mutants were expressed as immunoreactive polypeptides with a molecular weight and an expression level indistinguishable from wild type NgR (FIG. 4C and data not shown).
This collection of 74 individual NgR mutants was interrogated for AP-Nogo-66, AP-Amino-Nogo-B4C, AP-MAG, AP-OMgp, and AP-Lingo-1 binding. AP-Nogo66, AP-MAG, AP-OMGP and AP-Lingo-1 constructs are described elsewhere (Fournier, A. E., et al., Nature 409:341-346 (2001); Liu, B. P., et al., Science 297:1190-1193 (2002); Mi, S., et al., Nat. Neurosci. 7:221-228 (2004); Wang, K. C., et al., Nature 417:941-944 (2002b)). The properties of the NgR mutants fell into one of three major categories (Table II and FIG. 5). A number of Ala substituted NgR polypeptides bound all of the ligands at wild type levels. […] In addition, a significant extent of the concave surface is dispensable for ligand binding.
Alanine substituted NgR mutants were tested for their binding to AP-Nogo66, AP-B4C, AP-B4C66, AP-Lingo-1, AP-OMgp and AP-MAG and they fall into three categories: (1) Mutants that lose binding to all NgR ligands. (2) Mutants that still maintain binding to all NgR ligands. […] The D259N mutant is an asparagine substitution to mimic a human polymorphism.

| Molecule | ligand binding category of NgR mutant (Table II) |
| --- | --- |
| B1 | No binding |
| B2 | Binding to all ligands |
| B3 | Binding to all ligands |
| B4 | No binding |
| B5 | Binding to all ligands |
| B6 | Binding to all ligands |
| B7 | Binding to all ligands |
| B8 | Binding to all ligands |
| B9 | Binding to all ligands |
| B10 | Binding to all ligands |
| B11 | Binding to all ligands |
| B12 | Binding to all ligands |
| B13 | No binding |
| B14 | Binding to all ligands |
| B15 | No binding |
| B16 | No binding |
| B17 | Binding to all ligands |
| B18 | Binding to all ligands |
| B19 | Binding to all ligands |
| B20 | Binding to all ligands |
| B21 | Binding to all ligands |
| B22 | Binding to all ligands |
| B23 | Binding to all ligands |
| B24 | Binding to all ligands |
| B25 | Binding to all ligands |
